Assay results: PMC2745324 (Biochemistry, 2009)
Read-outs that look alike come from different tables or passages of the source.

B1: human adenylosuccinate lyase, wild type (enzyme)
chain: MAAGGDHGSPDSYRSPLASRYASPEMCFVFSDRYKFRTWRQLWLWLAEAEQTLGLPITDEQIQEMKSNLENIDFKMAAEEEKRLRHDVMAHVHTFGHCCPKAAGIIHLGATSCYVGDNTDLIILRNALDLLLPKLARVISRLADFAKERASLPTLGFTHFQPAQLTTVGKRCCLWIQDLCMDLQNLKRVRDDLRFRGVKGTTGTQASFLQLFEGDDHKVEQLDKMVTEKAGFKRAFIITGQTYTRKVDIEVLSVLASLGASVHKICTDIRLLANLKEMEEPFEKQQIGSSAMPYKRNPMRSERCCSLARHLMTLVMDPLQTASVQWFERTLDDSANRRICLAEAFLTADTILNTLQNISEGLVVYPKVIERRIRQELPFMATENIIMAMVKAGGSRQDCHEKIRVLSQQAASVVKQEGGDNDLIERIQVDAYFSPIHSQLDHLLDPSSFTGRASQQVQRFLEEEVYPLLKPYESVMKVKAE
B2: human adenylosuccinate lyase R396C mutant (enzyme)
chain: MAAGGDHGSPDSYRSPLASRYASPEMCFVFSDRYKFRTWRQLWLWLAEAEQTLGLPITDEQIQEMKSNLENIDFKMAAEEEKRLRHDVMAHVHTFGHCCPKAAGIIHLGATSCYVGDNTDLIILRNALDLLLPKLARVISRLADFAKERASLPTLGFTHFQPAQLTTVGKRCCLWIQDLCMDLQNLKRVRDDLRFRGVKGTTGTQASFLQLFEGDDHKVEQLDKMVTEKAGFKRAFIITGQTYTRKVDIEVLSVLASLGASVHKICTDIRLLANLKEMEEPFEKQQIGSSAMPYKRNPMRSERCCSLARHLMTLVMDPLQTASVQWFERTLDDSANRRICLAEAFLTADTILNTLQNISEGLVVYPKVIERRIRQELPFMATENIIMAMVKAGGSCQDCHEKIRVLSQQAASVVKQEGGDNDLIERIQVDAYFSPIHSQLDHLLDPSSFTGRASQQVQRFLEEEVYPLLKPYESVMKVKAE
B3: human adenylosuccinate lyase L311V mutant (enzyme)
chain: MAAGGDHGSPDSYRSPLASRYASPEMCFVFSDRYKFRTWRQLWLWLAEAEQTLGLPITDEQIQEMKSNLENIDFKMAAEEEKRLRHDVMAHVHTFGHCCPKAAGIIHLGATSCYVGDNTDLIILRNALDLLLPKLARVISRLADFAKERASLPTLGFTHFQPAQLTTVGKRCCLWIQDLCMDLQNLKRVRDDLRFRGVKGTTGTQASFLQLFEGDDHKVEQLDKMVTEKAGFKRAFIITGQTYTRKVDIEVLSVLASLGASVHKICTDIRLLANLKEMEEPFEKQQIGSSAMPYKRNPMRSERCCSLARHVMTLVMDPLQTASVQWFERTLDDSANRRICLAEAFLTADTILNTLQNISEGLVVYPKVIERRIRQELPFMATENIIMAMVKAGGSRQDCHEKIRVLSQQAASVVKQEGGDNDLIERIQVDAYFSPIHSQLDHLLDPSSFTGRASQQVQRFLEEEVYPLLKPYESVMKVKAE
B4: human adenylosuccinate lyase R396H mutant (enzyme)
chain: MAAGGDHGSPDSYRSPLASRYASPEMCFVFSDRYKFRTWRQLWLWLAEAEQTLGLPITDEQIQEMKSNLENIDFKMAAEEEKRLRHDVMAHVHTFGHCCPKAAGIIHLGATSCYVGDNTDLIILRNALDLLLPKLARVISRLADFAKERASLPTLGFTHFQPAQLTTVGKRCCLWIQDLCMDLQNLKRVRDDLRFRGVKGTTGTQASFLQLFEGDDHKVEQLDKMVTEKAGFKRAFIITGQTYTRKVDIEVLSVLASLGASVHKICTDIRLLANLKEMEEPFEKQQIGSSAMPYKRNPMRSERCCSLARHLMTLVMDPLQTASVQWFERTLDDSANRRICLAEAFLTADTILNTLQNISEGLVVYPKVIERRIRQELPFMATENIIMAMVKAGGSHQDCHEKIRVLSQQAASVVKQEGGDNDLIERIQVDAYFSPIHSQLDHLLDPSSFTGRASQQVQRFLEEEVYPLLKPYESVMKVKAE
B5: human adenylosuccinate lyase R194C mutant (enzyme)
chain: MAAGGDHGSPDSYRSPLASRYASPEMCFVFSDRYKFRTWRQLWLWLAEAEQTLGLPITDEQIQEMKSNLENIDFKMAAEEEKRLRHDVMAHVHTFGHCCPKAAGIIHLGATSCYVGDNTDLIILRNALDLLLPKLARVISRLADFAKERASLPTLGFTHFQPAQLTTVGKRCCLWIQDLCMDLQNLKRVRDDLCFRGVKGTTGTQASFLQLFEGDDHKVEQLDKMVTEKAGFKRAFIITGQTYTRKVDIEVLSVLASLGASVHKICTDIRLLANLKEMEEPFEKQQIGSSAMPYKRNPMRSERCCSLARHLMTLVMDPLQTASVQWFERTLDDSANRRICLAEAFLTADTILNTLQNISEGLVVYPKVIERRIRQELPFMATENIIMAMVKAGGSRQDCHEKIRVLSQQAASVVKQEGGDNDLIERIQVDAYFSPIHSQLDHLLDPSSFTGRASQQVQRFLEEEVYPLLKPYESVMKVKAE

Legend:
[1] = biological target: human adenylosuccinate lyase K246E mutant (human) (UniProt P30566); assay: AUC
[2] = biological target: human adenylosuccinate lyase K246E mutant (human) (UniProt P30566)
AUC [3] = biological target: the molecule itself; assay: AUC
SEC = biological target: the molecule itself; assay: SEC
AUC [4] = biological target: the molecule itself; assay: AUC; remark: listed apart in the source
AUC [5] = biological target: the molecule itself; assay: AUC; remark: listed apart in the source

| Molecule | percent as dimer (D-12mer model) [1] | stoichiometry N [1] | Vmax of SAMP cleavage at 25 °C [2] | percent as monomer (M-Tet model) (AUC [3]) | percent as tetramer (M-Tet model) (AUC [3]) | stoichiometry N (SEC) | percent as monomer (M-Tet model) (AUC [4]) | percent as tetramer (M-Tet model) (AUC [4]) | stoichiometry N (AUC [5]) |
| --- | --- | --- | --- | --- | --- | --- | --- | --- | --- |
| human adenylosuccinate lyase K246E mutant (from UniProt P30566 1-481) (enzyme) | 94% | 2 | 0.23 µmol/min/mg | – | – | – | – | – | – |
| B1 | – | – | – | 20% | 80% | 4 | 32% | 68% | – |
| B2 | – | – | – | 32% | 68% | – | 40% | 60% | 4 |
| B3 | – | – | – | 40% | 60% | 4 | 32% | 68% | – |
| B4 | – | – | – | – | – | – | 34% | 66% | 4 |
| B5 | – | – | – | 37% | 63% | 4 | 33% | 67% | – |
